Experimental data reported in patent publication US20220265759A1, “COMPOSITION AND METHOD FOR PROMOTING WOUND HEALING” (THE BOARD OF TRUSTEES OF THE UNIVERSITY OF ILLIOIS, priority 2019, published 2022).

Assays:
CCR10-eNOS interaction = molecular target: T1, CCR10-eNOS interaction (Homo sapiens, UniProt P46092); assay: Ligand-induced CCR10-eNOS interaction in HUVEC (Co-IP, confocal co-localization); type: cell-based; conditions: plasma membrane ROI, stimulation for 5 minutes; untreated control cells 43%
T1 construct: host or cells: HUVEC (primary human umbilical vein endothelial cells)
T1 sequence (P46092 1-362): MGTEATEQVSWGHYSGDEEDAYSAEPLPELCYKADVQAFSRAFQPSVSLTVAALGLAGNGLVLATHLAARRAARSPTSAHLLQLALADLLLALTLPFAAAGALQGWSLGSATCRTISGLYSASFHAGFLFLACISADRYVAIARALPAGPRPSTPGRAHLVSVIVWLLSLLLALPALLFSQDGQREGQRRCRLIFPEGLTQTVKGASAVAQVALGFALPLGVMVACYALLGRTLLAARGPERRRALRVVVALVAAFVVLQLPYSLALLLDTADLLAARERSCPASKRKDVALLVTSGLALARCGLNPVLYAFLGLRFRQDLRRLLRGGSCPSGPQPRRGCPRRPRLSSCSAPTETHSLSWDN
Protocol: (§1) Co-IP Experiments, cells or mouse wounds were collected after treatment, and lysed in 2% ODG in Tris buffer. The homogenates were further prepared for Co-IP experiments as described in the art (Chen, et al. (2018) Mol. Biol. Cell 29(10):1190-1202; Chen, et al. (2020) FASEB J. 34(4):5838-5850; Chen, et al. (2015) Ann. Rheum. Dis. 74:1898-1906).
Confocal Microscopy. For cellular immunostaining, confluent monolayers of cells grown on coverslips were prepared as described previously (Chen, et al. (2012) Mel. Biol. Cell 23(7):1388-1398). Fluorescent images were obtained using a Zeiss LSM 880 confocal microscope. The co-localization coefficient in specified regions of interest (ROI) were determined using Zeiss Zen software. Briefly, using the Overlay tool, the desired ROI was drawn along the cell edge and the values for the ROIs tabulated. […] The data from different treatment groups were collected and analyzed for statistical significance as described previously (Chen, et al. (2020) FASEB J. 34(4):5838-5850).
To investigate whether CCR10 interacts directly with eNOS, primary culture HUVEC were collected and prepared for co-immunoprecipitation (Co-IP) to assess CCR10-eNOS interaction following stimulation with 5 μM A23187. […] Co-localization coefficient in the regions of interest (ROI) in the plasma membrane were quantified from Zeiss LSM 880 confocal microscope images using Zeiss Zen software.

eNOS-CCR10 interaction = molecular target: T2, eNOS-CCR10 interaction (Homo sapiens, UniProt P46092); assay: CCL28-induced eNOS-CCR10 interaction in HDMVECs; type: cell-based; conditions: 500 ng/ml
T2 construct: host or cells: HDMVEC (human dermal microvascular endothelial cells)
T2 sequence (P46092 1-362): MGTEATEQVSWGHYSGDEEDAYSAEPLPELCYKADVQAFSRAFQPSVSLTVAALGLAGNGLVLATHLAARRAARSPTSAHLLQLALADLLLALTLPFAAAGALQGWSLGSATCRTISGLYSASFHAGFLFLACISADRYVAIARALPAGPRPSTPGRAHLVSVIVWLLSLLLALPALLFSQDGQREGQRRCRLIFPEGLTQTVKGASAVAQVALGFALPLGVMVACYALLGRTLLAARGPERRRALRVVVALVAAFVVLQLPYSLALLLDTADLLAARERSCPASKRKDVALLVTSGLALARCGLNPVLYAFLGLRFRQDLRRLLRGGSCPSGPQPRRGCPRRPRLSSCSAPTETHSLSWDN
T2 sequence (P29474 2-1203 partner limits assumed): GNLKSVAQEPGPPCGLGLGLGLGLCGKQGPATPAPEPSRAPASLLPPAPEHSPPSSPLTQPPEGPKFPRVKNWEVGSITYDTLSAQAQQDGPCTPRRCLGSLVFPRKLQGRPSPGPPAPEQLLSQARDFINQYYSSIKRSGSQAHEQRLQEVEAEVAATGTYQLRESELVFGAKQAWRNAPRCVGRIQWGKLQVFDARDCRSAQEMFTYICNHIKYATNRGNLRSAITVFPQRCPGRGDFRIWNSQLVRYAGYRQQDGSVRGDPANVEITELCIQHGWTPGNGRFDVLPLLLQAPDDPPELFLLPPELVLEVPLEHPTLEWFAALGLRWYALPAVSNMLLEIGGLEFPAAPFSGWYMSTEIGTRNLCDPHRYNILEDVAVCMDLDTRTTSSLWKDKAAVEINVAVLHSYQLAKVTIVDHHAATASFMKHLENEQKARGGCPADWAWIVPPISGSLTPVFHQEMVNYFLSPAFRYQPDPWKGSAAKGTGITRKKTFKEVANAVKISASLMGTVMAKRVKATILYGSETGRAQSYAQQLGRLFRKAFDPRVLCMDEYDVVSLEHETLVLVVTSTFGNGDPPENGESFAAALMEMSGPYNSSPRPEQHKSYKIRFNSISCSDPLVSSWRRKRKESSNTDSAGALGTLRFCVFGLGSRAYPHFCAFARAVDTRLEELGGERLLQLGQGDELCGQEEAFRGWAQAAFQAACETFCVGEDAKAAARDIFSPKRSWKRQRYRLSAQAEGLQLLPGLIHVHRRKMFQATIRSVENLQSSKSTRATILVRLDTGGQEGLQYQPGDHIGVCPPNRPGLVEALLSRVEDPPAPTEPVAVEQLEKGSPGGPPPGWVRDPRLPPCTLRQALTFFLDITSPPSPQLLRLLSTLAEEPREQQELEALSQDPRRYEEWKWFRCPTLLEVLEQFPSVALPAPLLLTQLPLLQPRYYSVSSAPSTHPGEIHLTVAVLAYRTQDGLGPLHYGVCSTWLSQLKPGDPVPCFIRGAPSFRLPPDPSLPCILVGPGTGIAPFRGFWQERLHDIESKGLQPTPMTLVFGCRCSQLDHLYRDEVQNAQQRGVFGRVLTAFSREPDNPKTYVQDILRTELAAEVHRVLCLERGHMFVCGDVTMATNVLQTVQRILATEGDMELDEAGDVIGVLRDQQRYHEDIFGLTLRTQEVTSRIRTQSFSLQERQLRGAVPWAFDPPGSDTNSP
Description: as §1
It has been shown that CCR10 is highly expressed in human umbilical vein endothelial cells (HUVECs) and human endothelial progenitor cells (EPCs) (Chen, et al. (2020) FASEB J. 34(4):5838-5850). In order to understand whether the CCL28/CCR10 signaling axis in dermal microvessels plays a role in wound healing, 500 ng/ml CCL28 was administrated to human dermal microvascular endothelial cells (HDMVECs). eNOS-CCR10 interaction increased with maximum binding observed at 5 minutes, similar to that observed in HUVEC (Chen, et al. (2020) FASEB J. 34(4):5838-5850). […] Upon stimulation with CCL28 for 5 minutes, CCR10 co-localized to a greater extent with eNOS on the plasma membrane.

[1] = test system: eNOS and CCR10 interaction with LAMP1; assay: eNOS internalization and degradation in HDMVECs stimulated with CCL28 (Co-IP with LAMP1, confocal microscopy); type: cell-based, human; conditions: HDMVECs
Protocol: as §1
Confocal Microscopy. For cellular immunostaining, confluent monolayers of cells grown on coverslips were prepared as described previously (Chen, et al. (2012) Mel. Biol. Cell 23(7):1388-1398). Fluorescent images were obtained using a Zeiss LSM 880 confocal microscope. The co-localization coefficient in specified regions of interest (ROI) were determined using Zeiss Zen software. Briefly, using the Overlay tool, the desired ROI was drawn along the cell edge and the values for the ROIs tabulated. The scatterplot and table were automatically adjusted to the pixel distribution for the selected ROI. The data from different treatment groups were collected and analyzed for statistical significance as described previously (Chen, et al. (2020) FASEB J. 34(4):5838-5850). […]
Since myristoylated 7 amino acid CCR10-binding domain (Myr-CBD7) peptide can block eNOS interaction with CCR10 and increase eNOS activity in HUVECs, it was assessed whether Myr-CBD7 can prevent eNOS internalization and degradation in HDMVECs following CCL28 stimulation. […]

[2] = test system: eNOS, p85 (PI3K), Src kinase, ERK (MAPK), β-catenin, Bcl-2; assay: Immunoblot of CCL28 signaling in endothelial cells; type: cell-based, human
Protocol: Immunoblot and Co-Immunoprecipitation (Co-IP). After serum starvation, inhibitors were added 45 minutes prior to stimulation for indicated times at 37° C., and cells were then collected and lysed for western blot analysis. After probing for p-eNOS (Ser1177), p-p85 (Tyr458), p-Src (Tyr 416), and p-ERK (T202/Y204), the same blots were stripped and re-probed for total proteins mentioned above. For detection of CCL28-induced protein levels of β-catenin and Bcl-2, near-confluent endothelial cells were incubated with 500 ng/ml CCL28 for 24 hours in EGM-2 medium containing 1% FBS.
(§2) NO production was also observed in HUVECs following treatment with 500 ng/ml human recombinant CCL28, the ligand for CCR10. The signaling pathways activated by CCL28 binding to CCR10 in endothelial cells were further investigated.
The role of CCL28/CCR10 signaling pathways was further investigated in angiogenesis. Pretreatment of cells with 10 μM wortmannin (PI3K inhibitor), 5 μM U0126 (MAPK/ERK inhibitor), 1 mM L-NAME (eNOS inhibitor), 10 μM PP2 (Src kinase inhibitor), and 10 μM STO-609 ([…]) reduced endothelial cell tube formation induced by 500 ng/ml CCL28. […]

HUVECs = assay: NO production in HUVECs; type: cell-based, human; conditions: 500 ng/ml
Protocol: Nitric Oxide (NO) Measurement with DAF-FM Diacetate. Confluent HUVEC monolayers on 96-well plates were loaded with 2.5 μM DAF-FM and incubated for 45 minutes at 37° C. NO concentration was measured using a SpectraMax Microplate Reader (Molecular Devices, San Jose, Calif.) as described in the art (Chen, et al. (2020) FASEB J. 34(4):5838-5850).
as §2

Co-localization coefficient of CCR10 and eNOS (CCR10-eNOS interaction): 78%
eNOS-CCR10 interaction (eNOS-CCR10 interaction): increased
time of maximum eNOS-CCR10 binding (eNOS-CCR10 interaction): 5 min
B1: CCL28: human recombinant CCL28, the ligand for CCR10 (protein)
chain: ILPIASSCCTEVSHHISRRLLERVNMCRIQRADGDCDLAAVILHVKRRRICVSPHNHTVKQWMKVQAAKKNGKGNVCHRKKHHGKRNSNRAHQGKHETYGHKTPY
eNOS co-localization with EEA1 ([1]; 500 ng/ml for 90 minutes, preliminary analyses): more co-localization
eNOS and CCR10 association with LAMP1 (co-IP) ([1]; 3 hours treatment): associated with LAMP1
expression levels of β-catenin and Bcl-2 ([2]; stimulation of endothelial cells for 24 hours): enhanced
Phosphorylation of eNOS (Ser1177), p85 (Tyr458; PI3K), Src kinase (Tyr418), and ERK (T202/Y204; MAPK) ([2]; treatment for up to 60 minutes): significantly increased
NO production (HUVECs): observed
